Reference: publication PMC3950679
Changes are numbered by the printed parent chain.

Experiments:
[1] = molecular target: T1, Cid1 WT (Schizosaccharomyces pombe, UniProt O13833 40-377); assay: EMSA
T1 sequence: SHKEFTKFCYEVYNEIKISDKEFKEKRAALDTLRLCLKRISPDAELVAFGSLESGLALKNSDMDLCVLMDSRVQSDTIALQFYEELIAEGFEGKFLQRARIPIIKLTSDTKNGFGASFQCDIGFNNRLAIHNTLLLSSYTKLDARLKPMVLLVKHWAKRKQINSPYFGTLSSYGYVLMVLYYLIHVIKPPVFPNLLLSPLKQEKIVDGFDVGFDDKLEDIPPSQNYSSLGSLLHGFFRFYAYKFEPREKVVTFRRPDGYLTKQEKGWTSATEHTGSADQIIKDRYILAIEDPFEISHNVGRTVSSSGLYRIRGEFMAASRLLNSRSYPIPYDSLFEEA

[2] = molecular target: T2, Cid1 D160A (Schizosaccharomyces pombe, UniProt O13833 40-377, D160A); assay: EMSA
T2 sequence: T1 sequence with D121A

B1: U15 (ssRNA)
RNA: UUUUUUUUUUUUUUU
B1 was tested, and the Kd [1] was ~1000 nM and the Kd [2] was ~1000 nM.
